Data from patent publication US10829528B2, “Therapeutic agents for neurological and psychiatric disorders” (VIB VZW, priority 2016, dated 2020).

Columns and labels:
[1] = system: cultured hippocampal neurons; assay: FM1-43 dye labeling of presynaptic vesicle recycling; assay type: cell-based, mouse
Description: We assessed the effect of sAPPα on synaptic vesicle recycling (ref6) using the activity-dependent dye FM1-43. We measured density (D) and intensity (ΔF) of FM1-43 uptake in presynaptic vesicles turned over by stimulation of 30 action potentials (APs) at a rate of 1 Hz in cultured hippocampal neurons.
The experiments were performed in mature (15-28 days in vitro) cultures. Hippocampal neurons were imaged using a FV1000 spectral Olympus confocal microscope using a 60×1.2 NA water immersion objective. The experiments were conducted at room temperature in extracellular Tyrode solution containing (in mM): NaCl, 145; KCl, 3; glucose, 15; HEPES, 10; MgCl2, 1.2; CaCl2), 1.2; pH adjusted to 7.4 with NaOH. For FM-based imaging and analysis, activity-dependent FM1-43 (10 μM) styryl dye was used to estimate basal synaptic vesicle recycling using previously described protocol48. Briefly, action potentials were elicited by passing 50 mA constant current for 1 ms through two platinum wires, separated by ˜7 mm and close to the surface of the coverslip. The extracellular medium contained non-selective blocker of glutamate receptors (0.5 mM kynurenic acid) to block recurrent neuronal activity. 30 stimuli at 1 Hz were applied during FM1-43 loading, while 800 stimuli at 2 Hz during unloading. The fluorescence of individual synapses was determined from the difference between images obtained after staining and after destining (ΔF). Detection of signals was done using custom-written scripts in MATLAB (Mathworks) as described before48.

[2] = system: App/Aplp1 dKO primary hippocampal neurons; assay: mEPSCs & mIPSCs in App/Aplp1 dKO primary hippocampal cultures; assay type: cell-based, mouse
Description: mEPSCs & mIPSCs are measured in cultured primary hippocampal neurons at baseline and following acute application of agonists. Excitatory terminals selectively express the sushi domain-containing GABABR1a isoform (ref18), where it functions to inhibit neurotransmitter release (ref 24). Acute exposure of primary hippocampal neurons from wild type mice to 30μM baclofen, a GABABR agonist, or 250 nM sAPPα (Fc cleaved) reduces the frequency of miniature excitatory postsynaptic currents (mEPSCs) by 68% (FIG. 8 a,b) and 39% (FIG. 8 c,d), respectively, with no effect on mEPSC amplitude (FIG. 8e). […]
Single neurons from wild type or APP/APLP1 null mutant embryos (E18) were recorded within the large neuronal network at DIV 12-15. […] Spontaneous events were detected using Mini Analysis program (Synaptosoft). mEPSCs and mIPSCs were separated on the basis of their distinct decay kinetics, using a threshold of 5 ms47. Baseline was determined from an average of 60 sec of recordings prior to protein or drug treatment. Effect of treatment was determined from an average of 30 sec recordings after 140 sec of protein or drug treatment.

B1: sAPPα: soluble amyloid precursor protein α ectodomain; mouse APP695 18-612aa, Fc tag cleaved (protein)
chain: LEVPTDGNAGLLAEPQIAMFCGKLNMHMNVQNGKWESDPSGTKTCIGTKEGILQYCQEVYPELQITNVVEANQPVTIQNWCKRGRKQCKTHTHIVIPYRCLVGEFVSDALLVPDKCKFLHQERMDVCETHLHWHTVAKETCSEKSTNLHDYGMLLPCGIDKFRGVEFVCCPLAEESDSVDSADAEEDDSDVWWGGADTDYADGGEDKVVEVAEEEEVADVEEEEADDDEDVEDGDEVEEEAEEPYEEATERTTSTATTTTTTTESVEEVVRVPTTAASTPDAVDKYLETPGDENEHAHFQKAKERLEAKHRERMSQVMREWEEAERQAKNLPKADKKAVIQHFQEKVESLEQEAANERQQLVETHMARVEAMLNDRRRLALENYITALQAVPPRPHHVFNMLKKYVRAEQKDRQHTLKHFEHVRMVDPKKAAQIRSQVMTHLRVIYERMNQSLSLLYNVPAVAEEIQDEVDELLQKEQNYSDDVLANMISEPRISYGNDALMPSLTETKTTVELLPVNGEFSLDDLQPWHPFGVDSVPANTENEVEPVDARPAADRGLTTRPGSGLTNIKTEEISEVKMDAEFGHDSGFEVRHQK
- reduction of total presynaptic strength (S=ΔF×D) ([1]; 1 μM, 15 min after addition, 30 APs at 1 Hz): 57%
- effect on presynaptic vesicle recycling (in words) ([1]; FM1-43, sAPPαΔExD at 1 μM): dose dependent manner
- effect on mEPSC frequency [2]: reduces
- effect on mIPSC frequency [2]: reduces
